Reference: the RNAGym collection of RNA variant scans (doi:10.1093/molbev/msab373)

B1: Azoarcus group I ribozyme (parent)
chain: GUGCCUUGCGCCGGGAAACCACGCAAGGGAUGGUGUCAAAUUCGGCGAAACCUAAGCGCCCGCCCGGGCGUAUGGCAACGCCGAGCCAAGCUUCGGCGCCUGCGCCGAUGAAGGUGUAGAGACUAGACGGCACCCACCUAAGGCAAACGCUAUGGUGAAGGCAUAGUCCAGGGAGUGGCGAAAGUCACACAAACCGG

Variants of: B1
Assay: reverse-splicing fitness (ratio to wild type); higher = more active; in vitro selection; Mg2+ level not given
Method in brief: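 An in vitro group I ribozyme library with randomized positions was T7-transcribed and gel-purified. In triplicate, 10 pmol RNA in EPPS pH 7.5 was reacted with 50 pmoles of a 30-nt RNA substrate for 1 h at 37 °C across several added MgCl2 levels (1–48 mM), then stopped with EDTA. Products were reverse transcribed from a substrate-complementary primer, PCR-amplified and sequenced (HiSeq 4000). Fitness is a variant's read proportion after selection over that before, normalised to wild type.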

Row | Variant | reverse-splicing fitness
1 | A120U A145C C169G | 0.231
2 | A120U A145C C169U | 0.263
3 | A145C C150A C169G | 0.0208
4 | A145C C150A C169U | 0.0286
5 | A145C C150A C169A | 0.0125
6 | A120U A145U C150A U176G | 0.0665
7 | A120U A145U C150A U176A | 0.151
8 | A120U A145U C150A U176C | 0.141
9 | A145C C150U C169A U176C | 0.0196
10 | A145C C150U C169A U176G | 0.00607
11 | A145C C150U C169A U176A | 0.0158
12 | A120U C150U U176A | 0.62
13 | A120U C150U U176C | 0.556
14 | A120U C150U U176G | 0.222
15 | A120U A145C C150U C169G U176C | 0.0135
16 | A120U A145C C150U C169G U176A | 0.0156
17 | A120U A145C C150U C169G U176G | 0.00233
18 | A145G C150U C169U | 0.382
19 | A145G C150U C169G | 0.239
20 | A145G C150U C169A | 0.136
21 | A120U A145U C150G C169A | 0.00425

Row | Variant | reverse-splicing fitness
22 | A120U A145U C150G C169U | 0.0429
23 | A120U A145U C150G C169G | 0.0307
24 | A120U A145G C169G | 0.255
25 | A120U A145G C169A | 0.0154
26 | A120U A145G C169U | 0.286
27 | A120U C150A C169A U176C | 0.00333
28 | A120U C150A C169A U176G | 0.00205
29 | A120U C150A C169A U176A | 0.00376
30 | A120U A145G C150A C169G | 0.0459
31 | A120U A145G C150A C169U | 0.0612
32 | A120U A145G C150A C169A | 0.00622
33 | A120U A145U C150U C169A | 0.0103
34 | A120U A145U C150U C169G | 0.166
35 | A120U A145U C150U C169U | 0.197
36 | A120U A145U C150U C169G U176C | 0.0637
37 | A120U A145U C150U C169G U176A | 0.0285
38 | A120U A145U C150U C169G U176G | 0.00311
39 | A145G C150A C169G | 0.0594
40 | A145G C150A C169U | 0.0924
41 | A145G C150A C169A | 0.0304
42 | A120U A145C C150G U176G | 0.0278

Row | Variant | reverse-splicing fitness
43 | A120U A145U C169G U176C | 0.0807
44 | A120U A145U C169G U176A | 0.0356
45 | A120U A145U C169G U176G | 0.00322
46 | A120U C169G U176G | 0.00332
47 | A120U C169G U176A | 0.0354
48 | A120U C169G U176C | 0.0915
49 | A145G C150A C169G U176G | 0.00527
50 | A145G C150A C169G U176A | 0.0321
51 | A145G C150A C169G U176C | 0.0517
52 | A120U A145U C150A C169G U176C | 0.0122
53 | A120U A145U C150A C169G U176G | 0.00216
54 | A120U A145U C150A C169G U176A | 0.00797
55 | A120U A145U C150A C169U | 0.0358
56 | A120U A145U C150A C169G | 0.0282
57 | A120U A145U C150A C169A | 0.00309
58 | A120U A145C C169U U176A | 0.0854
59 | A120U A145C C169U U176C | 0.1
60 | A120U A145C C169U U176G | 0.0133
61 | A120U A145G C169A U176A | 0.00474
62 | A120U A145G C169A U176G | 0.00148
63 | A120U A145G C169A U176C | 0.00664

Row | Variant | reverse-splicing fitness
64 | A120U C150U C169G U176A | 0.0257
65 | A120U C150U C169G U176G | 0.00278
66 | A120U C150U C169G U176C | 0.0569
67 | A120U C150G C169G U176C | 0.0024
68 | A120U C150G C169G U176G | 0.00248
69 | A120U C150G C169G U176A | 0.00487
70 | A120U A145U C169G | 0.256
71 | A120U A145U C169A | 0.0173
72 | A120U A145U C169U | 0.261
73 | A145G C150A C169U U176G | 0.00772
74 | A145G C150A C169U U176A | 0.0484
75 | A145G C150A C169U U176C | 0.0583
76 | A120U A145G C150A | 0.361
77 | A120U A145G C150U | 0.841
78 | A120U A145G C150G | 0.25
79 | A145C C150U | 0.695
80 | A145C C150G | 0.525
81 | A145C C150A | 0.321
82 | A120U A145G C150U C169U | 0.256
83 | A120U A145G C150U C169G | 0.199
84 | A120U A145G C150U C169A | 0.0163
